PMC7703624 (Proceedings of the National Academy of Sciences of the …, 2020)
Where a SMILES comes first, the peptide text is derived from it.

Key:
[1] = biological target: T1, ENAH EVH1 (Homo sapiens, UniProt Q8N8S7); assay: other fluorescence titration
Target sequence in this assay (Q8N8S7 whole entry): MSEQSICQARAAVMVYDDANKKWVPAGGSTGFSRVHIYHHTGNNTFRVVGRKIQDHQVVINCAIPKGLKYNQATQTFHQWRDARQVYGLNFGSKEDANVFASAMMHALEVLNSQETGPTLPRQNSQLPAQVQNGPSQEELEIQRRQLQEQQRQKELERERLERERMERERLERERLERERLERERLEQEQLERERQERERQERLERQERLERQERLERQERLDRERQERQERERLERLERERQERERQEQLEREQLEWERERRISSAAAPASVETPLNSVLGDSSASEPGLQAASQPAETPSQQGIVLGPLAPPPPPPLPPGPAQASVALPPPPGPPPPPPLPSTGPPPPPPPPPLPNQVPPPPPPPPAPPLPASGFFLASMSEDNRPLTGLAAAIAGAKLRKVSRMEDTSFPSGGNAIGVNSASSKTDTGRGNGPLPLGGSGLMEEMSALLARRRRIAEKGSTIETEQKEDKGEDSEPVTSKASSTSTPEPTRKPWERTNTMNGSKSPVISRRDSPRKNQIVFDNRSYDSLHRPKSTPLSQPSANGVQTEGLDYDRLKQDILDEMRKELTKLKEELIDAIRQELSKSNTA

[2] = biological target: T1, ENAH EVH1; assay: Fluorescence titration; type: binding
[3] = biological target: Fyn SH3 (Homo sapiens, UniProt P06241); assay: Pulldown of GST-Fyn SH3 from Jurkat cell lysate, displacement of ADAP; type: binding; details: Jurkat cell lysate 1 mg/ml, 50 µM active concentration
Chain of Fyn SH3 (P06241 82-143 limits assumed): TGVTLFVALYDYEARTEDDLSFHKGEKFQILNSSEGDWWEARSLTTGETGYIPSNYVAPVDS

“2ΔC, Ac-SFE[2-Cl-Phe][ProM-2][ProM-1]-OEt (peptide)” was tested, and the Kd [1] was 2900 nM.

Work on “2ΔN, Ac-[2-Cl-Phe][ProM-2][ProM-1]TEDEL-NH2 (peptide)” yielded a Kd [1] of 330 nM.

`CCOC(=O)[C@@H]1CCCN1C(=O)[C@@H]1CCCN1C(=O)[C@@H]1CCCN1C(=O)[C@@H]1CCCN1C(=O)[C@H](Cc1ccccc1)NC(C)=O` [wt1, Ac–FPPPP–OEt] (Ac-FPPPP-OEt) was tested, and the Kd [2] was 153000 nM.

For Ac-RPLPPLP-NH2 [Ac–RPLPPLP −NH2], the “displacement of ADAP from bead-bound GST-Fyn SH3” value [3] was “displaced ADAP”.

In the case of “chimeric peptide 2, Ac-SFE[2-Cl-Phe][ProM-2][ProM-1]TEDEL-NH2”, the Kd [1] is reported as 150 nM.

B1: wt2, Ac-…-NH2 (peptide)
peptide: Ac-SFEFPPPPTEDEL-NH2
B1 showed a Kd [1] of 13000 nM.
